Results as given in paper PMC11165011, “Proteinase 3 depletion attenuates leukemia by promoting myeloid differentiation” (Cell Death and Differentiation, 2024).

B1: PRTN3 recombinant protein (enzyme, human, UniProt P24158 28-248, looked up)
chain: IVGGHEAQPHSRPYMASLQMRGNPGSHFCGGTLIHPSFVLTAAHCLRDIPQRLVNVVLGAHNVRTQEPTQQHFSVAQVFLNNYDAENKLNDVLLIQLSSPANLSASVATVQLPQQDQPVPHGTQCLAMGWGRVGAHDPPAQVLQELNVTVVTFFCRPHNICTFVPRRKAGICFGDSGGPLICDGIIQGIDSFVIWGCATRLFPDFFTRVALYVDWIRSTLR
notes: Proteinase 3 (PRTN3), human, bought recombinant protein; see the vendor's sheet for HY-P70509; also called hPRTN3; hPR3; source: bought: ACE (HY-P70509)
B2: N-terminal domain of STAT3, recombinant (domain or fragment)
chain: MAQWNQLQQLDTRYLEQLHQLYSDSFPMELRQFLAPWIESQDWAYAASKESHATLVFHNLLGEIDQQYSRFLQESNVLYQHNLRRIKQFLQSRYLEKPMEIARIVARCLWEESRLLQTAATAAQQGGQAN
modifications: Limits of the purchased recombinant N-terminal domain are not given; 1-130 is taken from the paper's own shortest Flag-STAT3 truncation (1-130), which matches the usual N-terminal domain boundary. …

How the values were obtained:
[1] = target: T1, STAT3 recombinant protein (whole STAT3) (human, UniProt P40763 1-770); test: SPR; Biacore K8, CM5 chip; 'target proteins' at 20 μg/mL in PBS pH 7.2 immobilised by amine coupling at 25 °C (which partner is not stated); 300 s dissociation; steady-state analysis; conditions: both partners purified
T1 construct: STAT3, human, bought recombinant protein with the N-terminal domain; In the cleavage test STAT3 ran as a ~120 kDa monomer, which may mean a carrier tag (surmise); also called recombinant human STAT3; source: bought: one of Abcam (Ab43618), ACRO (ST3-H5149), ACE (HY-P70574)

[2] = target: B1; test: as above; conditions: both partners purified

Binder	Kd [1] [µM]	Kd [2] [µM]
B1	0.224	–
B2	–	6.91
